Where a chain is given by its changes, count along the chain named.
What was measured:
[1] = molecular target: T1, HLA-A2/MAGE-A4 peptide MHC (pMHC) complex on cells (human); assay: cell-based or functional assay
[2] = molecular target: T2, HLA-A2/MAGE-A4p230-239 complex (human); assay: SPR Biacore T200, antibody captured by anti-human Fc, pMHC complex as analyte, 25 C, 1:1 Langmuir fit
T2 construct: also called HLA-A2/MAGEp230-239
Description: The dissociation phase was monitored for 240 s and triggered by switching from the sample solution to HBS-EP+. The chip surface was regenerated after every cycle using an injection of 3M MgCl₂ at 10 μl/min for 30 sec. Bulk refractive index differences were corrected for by subtracting the response obtained on the reference flow cell which contains the anti-human Fc antibody, but without HLA-A2/MAGE-A4 antibody captured on it. The affinity constants were derived from the kinetic rate constants by fitting to a 1:1 Langmuir binding using the BIAeval software (GE Healthcare). The measurement was performed in triplicate with independent dilution series.

[3] = molecular target: T1, HLA-A2/MAGE-A4 peptide MHC (pMHC) …; assay: cell-based or functional assay; remark: listed apart in the source
[4] = molecular target: T1, HLA-A2/MAGE-A4 peptide MHC (pMHC) …; assay: cell-based or functional assay; remark: listed apart in the source
[5] = molecular target: T1, HLA-A2/MAGE-A4 peptide MHC (pMHC) …; assay: cell-based or functional assay; remark: listed apart in the source
pfkA = pfkA (human); assay: cell-based or functional assay
DPYSL3 = DPYSL3 (human); assay: cell-based or functional assay
gutQ = gutQ (human); assay: cell-based or functional assay
UBE2V2 = UBE2V2 (human); assay: cell-based or functional assay
DPYSL4 = DPYSL4 (human); assay: cell-based or functional assay
PIGG = PIGG (human); assay: cell-based or functional assay
CRMP1 = CRMP1 (human); assay: cell-based or functional assay
BNRF1 = BNRF1 (human); assay: cell-based or functional assay
EDC3 = EDC3 (human); assay: cell-based or functional assay
FBXO34 = FBXO34 (human); assay: cell-based or functional assay
SLC45A1 = SLC45A1 (human); assay: cell-based or functional assay
KEAP1 = KEAP1 (human); assay: cell-based or functional assay
UNC80 = UNC80 (human); assay: cell-based or functional assay
VPS13D = VPS13D (human); assay: cell-based or functional assay
MAGEB2 = MAGEB2 (human); assay: cell-based or functional assay
ARF1 = ARF1 (human); assay: cell-based or functional assay
ARF3 = ARF3 (human); assay: cell-based or functional assay
URB1 = URB1 (human); assay: cell-based or functional assay
GAPDHS = GAPDHS (human); assay: cell-based or functional assay
CCS = CCS (human); assay: cell-based or functional assay
KDM1A = KDM1A (human); assay: cell-based or functional assay
DYNC1H1 = DYNC1H1 (human); assay: cell-based or functional assay
MTOR = MTOR (human); assay: cell-based or functional assay
PKP1 = PKP1 (human); assay: cell-based or functional assay
T9A = T9A (human); assay: cell-based or functional assay
V10A = V10A (human); assay: cell-based or functional assay
G1A = G1A (human); assay: cell-based or functional assay
V2A = V2A (human); assay: cell-based or functional assay
Y3A = Y3A (human); assay: cell-based or functional assay
D4A = D4A (human); assay: cell-based or functional assay
G5A = G5A (human); assay: cell-based or functional assay
R6A = R6A (human); assay: cell-based or functional assay
E7A = E7A (human); assay: cell-based or functional assay
H8A = H8A (human); assay: cell-based or functional assay
[6] = molecular target: T1, HLA-A2/MAGE-A4 peptide MHC (pMHC) …; assay: cell-based or functional assay; remark: listed apart in the source
[7] = molecular target: T1, HLA-A2/MAGE-A4 peptide MHC (pMHC) …; assay: cell-based or functional assay; remark: listed apart in the source

B1: Molecule L (antibody, V domains shown)
VH: not shown
VL: SSELTQDPAVSVALGQTVRITCQGDSLRSYYASWYQQKPGQAPVLVIYGKNNRPSGIPDRFSGSSSGNTASLTITGAQAEDEADYYCNSRQSSYYHHIVFGGGTKLTVL
notes: also called 032G09 IgG antibody
[1]
  EC50 (pM), activation of PGLALA-CAR-J cells in presence of MAGE-A4 peptide pulsed T2 cells: 83.7 pM
[2]
  Kd: 25.1 nM
  koff: 0.003 s⁻¹
  kon: 120000 M⁻¹ s⁻¹

B2: Molecule M (antibody, V domains shown)
VH: not shown
VL: B1 VL with G67S, Q91M, Y94R, I98D
notes: also called 034F05 IgG antibody
[1]
  EC50 (pM), activation of PGLALA-CAR-J cells in presence of MAGE-A4 peptide pulsed T2 cells: 19.2 pM
[2]
  Kd: 2.47 nM
  koff: 0.00111 s⁻¹
  kon: 450000 M⁻¹ s⁻¹

B3: Molecule C (bispecific antibody, V domains shown)
VH 1: TQQLVESGGGLVQPGGSLRLSCAASGFSFSFDTMSWVRQAPGKGLEWVGSISPSGGSTYYNDNVLGRFTISRDNSKNTLYLQMNSLRAEDTAVYYCARDHGYFDMWGQGTLVTVSS
VL 1: DIQMTQSPSSLSASVGDRVTITCRASQSISSYLAWYQQKPGKAPKLLIYDASWLELGVPSRFSGSGSGTDFTLTISSLQPEDFATYYCQQYSSYPYTFGQGTKLEIK
VH 2: not shown
VL 2: QAVVTQEPSLTVSPGGTVTLTCGSSTGAVTTSNYANWVQEKPGQAFRGLIGGTNKRAPGTPARFSGSLLGGKAALTLSGAQPEDEAEYYCALWYSNLWVFGGGTKLTVL
[3]
  EC50 [pM] 24 h, T-cell mediated lysis of MAGE-A4 peptide pulsed T2 cells: 121 pM
[4]
  EC50 [pM], activation of Jurkat-NFAT reporter cells (luminescence, 6 h) with MAGE-A4 peptide pulsed T2 cells: 976 pM
[5]
  EC50 [pM], T-cell mediated lysis of IM-9 cells, 24 h: 2740 pM
  EC50 [pM], T-cell mediated lysis of NCI-H1755 cells, 24 h: 460 pM
pfkA
  % of MAGE-A4 signal, Jurkat-NFAT: 0.4%
DPYSL3
  % of MAGE-A4 signal, Jurkat-NFAT: 0.35%
gutQ
  % of MAGE-A4 signal, Jurkat-NFAT: 0.36%
UBE2V2
  % of MAGE-A4 signal, Jurkat-NFAT: 0.52%
DPYSL4
  % of MAGE-A4 signal, Jurkat-NFAT: 0.27%
PIGG
  % of MAGE-A4 signal, Jurkat-NFAT: 0.33%
CRMP1
  % of MAGE-A4 signal, Jurkat-NFAT: 0.29%
BNRF1
  % of MAGE-A4 signal, Jurkat-NFAT: 0.36%
EDC3
  % of MAGE-A4 signal, Jurkat-NFAT: 0.48%
FBXO34
  % of MAGE-A4 signal, Jurkat-NFAT: 0.39%
SLC45A1
  % of MAGE-A4 signal, Jurkat-NFAT: 0.22%
KEAP1
  % of MAGE-A4 signal, Jurkat-NFAT: 0.51%
UNC80
  % of MAGE-A4 signal, Jurkat-NFAT: 0.43%
VPS13D
  % of MAGE-A4 signal, Jurkat-NFAT: 0.39%
MAGEB2
  % of MAGE-A4 signal, Jurkat-NFAT: 0.34%
ARF1
  % of MAGE-A4 signal, Jurkat-NFAT: 0.23%
ARF3
  % of MAGE-A4 signal, Jurkat-NFAT: 0.49%
URB1
  % of MAGE-A4 signal, Jurkat-NFAT: 0.45%
GAPDHS
  % of MAGE-A4 signal, Jurkat-NFAT: 0.37%
CCS
  % of MAGE-A4 signal, Jurkat-NFAT: 0.29%
KDM1A
  % of MAGE-A4 signal, Jurkat-NFAT: 0.24%
DYNC1H1
  % of MAGE-A4 signal, Jurkat-NFAT: 0.17%
MTOR
  % of MAGE-A4 signal, Jurkat-NFAT: 0.26%
PKP1
  % of MAGE-A4 signal, Jurkat-NFAT: 0.49%
T9A
  EC50, Jurkat-NFAT activation: 0.67 nM
V10A
  EC50, Jurkat-NFAT activation: 13 nM
G1A
  EC50, Jurkat-NFAT activation: 1.44 nM
V2A
  EC50, Jurkat-NFAT activation: 0.687 nM
Y3A
  EC50, Jurkat-NFAT activation: 0.626 nM
D4A
  EC50, Jurkat-NFAT activation: 0.738 nM
G5A
  EC50, Jurkat-NFAT activation: 16.8 nM
R6A
  EC50, Jurkat-NFAT activation: 4.34 nM
E7A
  EC50, Jurkat-NFAT activation: 1.22 nM
H8A
  EC50, Jurkat-NFAT activation: 3.94 nM
[6]
  EC50, Jurkat-NFAT activation: 1.03 nM

B4: Molecule J (antibody, V domains shown)
VH: B3 VH 1
VL: B3 VL 1
notes: also called 057B04 IgG antibody
[1]
  EC50 (pM), activation of PGLALA-CAR-J cells in presence of MAGE-A4 peptide pulsed T2 cells: 208 pM
[2]
  Kd: 40.7 nM
  koff: 0.043 s⁻¹
  kon: 1.06e+06 M⁻¹ s⁻¹

B5: Molecule H (antibody, V domains shown)
VH: YVQLVESGGGLVKPGGSLRLSCAAPLPFTGLDMSWVRQAPGKGLEWVGSISPKGGSTYYNDNVLGRFTISRDNSKNTLYLQMNSLRAEDTAVYYCARDWGFFDLWGQGTLVTVSS
VL: B3 VL 1 with D1A, S31N, S52N, W53A, L54H, L56N, G57D, Y94H
notes: also called 007A09 IgG antibody
[1]
  EC50 (pM), activation of PGLALA-CAR-J cells in presence of MAGE-A4 peptide pulsed T2 cells: 8.6 pM
[2]
  Kd: 17.3 nM
  koff: 0.00426 s⁻¹
  kon: 247000 M⁻¹ s⁻¹

B6: Molecule K (antibody, V domains shown)
VH: AQLVESGGGLVQPGGSLRLSCAASAYFSFKAMSWVRQAPGKGLEWVGSISPSGGSTYYNDNVLGRFTISRDNSKNTLYLQMNSLRAEDTAVYYCAKDVGFFDEWGQGTLVTVSS
VL: B3 VL 1 with W53I, L54R, E55D, L56I
notes: also called 057D03 IgG antibody
[1]
  EC50 (pM), activation of PGLALA-CAR-J cells in presence of MAGE-A4 peptide pulsed T2 cells: 18.2 pM
[2]
  Kd: 15.7 nM
  koff: 0.0408 s⁻¹
  kon: 2.6e+06 M⁻¹ s⁻¹

B7: Molecule I (antibody, V domains shown)
VH: B5 VH with V2P, P25R, L26Y, G30R, L104N
VL: B3 VL 1 with D1A, S31N, D50N, W53H, L54P, L56Y, G57D, Y94H
notes: also called 007D10 IgG antibody
[1]
  EC50 (pM), activation of PGLALA-CAR-J cells in presence of MAGE-A4 peptide pulsed T2 cells: 182 pM
[2]
  Kd: 96.4 nM
  koff: 0.00246 s⁻¹
  kon: 25500 M⁻¹ s⁻¹

B8: Molecule U (bispecific antibody, V domains shown)
VH 1: QVQLQQSGGEVMKPGASVKLSCKATGYTFTGYWIEWIKQRPGHGLEWIGEILPGSGGTNYNEKFKGKATFTAHTSSNTAYMQLSSLTTEDSAIYYCARDSNSFTYWGQGTLVTVSS
VL 1: QIVLTQSPAIMSASPGEKVTITCSVSSSVDYIHWFQQKPGTSPKFWIYSTSILASGVPARFSGSGSGTSYSLTISRMEAEDAATYYCQQRSSYPPTFGSGTKLEIK
VH 2: EVQLVESGGGLVQPGGSLRLSCAASGYSFTGYTMNWVRQAPGKGLEWVALINPYKGVSTYNQKFKDRFTISVDKSKNTAYLQMNSLRAEDTAVYYCARSGYYGDSDWYFDVWGQGTLVTVSS
VL 2: DIQMTQSPSSLSASVGDRVTITCRASQDIRNYLNWYQQKPGKAPKLLIYYTSRLESGVPSRFSGSGSGTDYTLTISSLQPEDFATYYCQQGNTLPWTFGQGTKVEIK
[7]
  EC50 (nM), T-cell mediated lysis of A375 cells, 48 h: 1.96 nM
  EC50 (nM), T-cell mediated lysis of NCI-H2023 cells, 48 h: 1.12 nM
  EC50 (nM), T-cell mediated lysis of UMUC-3 cells, 48 h: 0.45 nM

B9: Molecule N (antibody, V domains shown)
VH: B8 VH 1
VL: B8 VL 1
[1]
  EC50 (pM), activation of PGLALA-CAR-J cells in presence of MAGE-A4 peptide pulsed T2 cells: 19.2 pM

Reference: patent US20260098095A1 (Hoffmann-La Roche, published 2026)
